Assay results taken from patent US6297356, “Telomere repeat binding factors and diagnostic and therapeutic use thereof” (The Rockfeller University).

Target: T1, TRF1 (MTRF12) (Mus musculus, UniProt P70371 SEQ:1-421)
T1 sequence: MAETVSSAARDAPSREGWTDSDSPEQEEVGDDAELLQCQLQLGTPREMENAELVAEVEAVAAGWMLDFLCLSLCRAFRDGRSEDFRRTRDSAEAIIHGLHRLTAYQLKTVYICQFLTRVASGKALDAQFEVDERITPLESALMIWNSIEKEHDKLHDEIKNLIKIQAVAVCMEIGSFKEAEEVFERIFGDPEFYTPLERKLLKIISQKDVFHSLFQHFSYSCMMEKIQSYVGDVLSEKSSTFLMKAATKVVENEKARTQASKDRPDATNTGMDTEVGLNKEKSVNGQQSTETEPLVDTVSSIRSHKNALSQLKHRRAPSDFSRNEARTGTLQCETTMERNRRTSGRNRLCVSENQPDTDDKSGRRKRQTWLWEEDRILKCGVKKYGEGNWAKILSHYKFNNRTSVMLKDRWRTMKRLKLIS
Test: EMSA; reticulocyte lysate
Settings: chain copies: 2; label: labelled
Source text: Figure 6: FIG. 6 depicts a gel-shift experiment showing telomeric repeat binding activity of protein encoded by the mouse MTRF12 cDNA. The cDNA was transcribed using T3 RNA polymerase and translated in a rabbit reticulocyte lysate. The probe is a $(TTAGGG)12$-containing restriction fragment. Competitions were done with plasmids containing long arrays of telomeric DNAs with the indicated sequence. Gel-shift methods are as described by (Zhong et al, 1992). […] Shown is two interphase nuclei in which the anti-FLAG antibodies detect a speckled TRF pattern (green) against the background of DAPI stained DNA (blue). […] Shown is a metaphase spread in which the anti-HA antibody detects TRF at each chromosome end (green). The DNA is stained with DAPI (blue).
The mouse cDNA (MTRF12) contained its own initiator codon and was transcribed and translated without further modification using the T3 promoter in its pBluescript vector. Similar to the human cDNA, a ~60 kD protein was synthesized that bound TTAGGG repeats but not TTGGGG or TTAGGC repeats (FIG. 6).

B1: (TTAGGG)12 restriction fragment (dsDNA)
DNA 1: GTACCCGGGGATCGTGACTCTAGAGGGGCCCTAACCCTAACCCTAACCCTAACCCTAACCCTAACCCTAACCCTAACCCTAACCCTAACCCTAACCCTAACCCTAACCCGGGTCGAATTCGATCTCTAGAGTCGACCTGCAGGCATGC
DNA 2: GCATGCCTGCAGGTCGACTCTAGAGATCGAATTCGACCCGGGTTAGGGTTAGGGTTAGGGTTAGGGTTAGGGTTAGGGTTAGGGTTAGGGTTAGGGTTAGGGTTAGGGTTAGGGTTAGGGCCCCTCTAGAGTCACGATCCCCGGGTAC
B1: binds.
